Measurements as given in patent US20210395360A1 (published 2021).
Positions count from the first letter of the chain named. Where two headings read alike, the source gives them in different places.

What was measured:
[1] = target: T1, human Sp35 protein expressed on transfected cells (human, UniProt Q96FE5 40-620); assay: FACS, stable CHO
T1 construct: also called huSp35; hLINGO-1
T1 sequence: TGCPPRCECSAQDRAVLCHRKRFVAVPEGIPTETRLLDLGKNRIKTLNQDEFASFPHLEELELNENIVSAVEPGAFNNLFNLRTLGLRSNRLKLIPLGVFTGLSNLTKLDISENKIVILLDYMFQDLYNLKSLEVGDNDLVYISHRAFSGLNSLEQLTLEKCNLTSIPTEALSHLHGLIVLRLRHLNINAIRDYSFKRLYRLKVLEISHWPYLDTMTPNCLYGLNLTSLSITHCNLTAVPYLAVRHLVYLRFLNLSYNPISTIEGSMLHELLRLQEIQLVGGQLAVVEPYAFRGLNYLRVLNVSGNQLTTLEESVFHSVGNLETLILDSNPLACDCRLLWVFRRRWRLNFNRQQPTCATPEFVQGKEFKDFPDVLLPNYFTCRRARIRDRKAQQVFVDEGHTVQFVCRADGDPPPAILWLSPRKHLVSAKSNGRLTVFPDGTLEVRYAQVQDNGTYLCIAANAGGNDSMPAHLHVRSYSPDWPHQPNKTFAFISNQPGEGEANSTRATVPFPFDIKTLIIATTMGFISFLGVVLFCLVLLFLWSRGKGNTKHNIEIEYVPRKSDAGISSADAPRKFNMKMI

Ig region of Sp35 = target: T2, Ig region of Sp35 (Homo sapiens (Human), UniProt Q96FE5 423-538, limits assumed); assay: ELISA
T2 sequence: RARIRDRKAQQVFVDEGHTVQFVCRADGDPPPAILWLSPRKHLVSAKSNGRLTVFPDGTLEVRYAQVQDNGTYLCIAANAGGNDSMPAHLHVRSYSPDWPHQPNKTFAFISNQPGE

[2] = target: T3, mouse Sp35 protein expressed on transfected cells (mouse, UniProt Q9D1T0 36-614); assay: FACS, stable CHO
T3 construct: whole, on cells; also called mSp35; mLINGO-1
T3 sequence (looked up): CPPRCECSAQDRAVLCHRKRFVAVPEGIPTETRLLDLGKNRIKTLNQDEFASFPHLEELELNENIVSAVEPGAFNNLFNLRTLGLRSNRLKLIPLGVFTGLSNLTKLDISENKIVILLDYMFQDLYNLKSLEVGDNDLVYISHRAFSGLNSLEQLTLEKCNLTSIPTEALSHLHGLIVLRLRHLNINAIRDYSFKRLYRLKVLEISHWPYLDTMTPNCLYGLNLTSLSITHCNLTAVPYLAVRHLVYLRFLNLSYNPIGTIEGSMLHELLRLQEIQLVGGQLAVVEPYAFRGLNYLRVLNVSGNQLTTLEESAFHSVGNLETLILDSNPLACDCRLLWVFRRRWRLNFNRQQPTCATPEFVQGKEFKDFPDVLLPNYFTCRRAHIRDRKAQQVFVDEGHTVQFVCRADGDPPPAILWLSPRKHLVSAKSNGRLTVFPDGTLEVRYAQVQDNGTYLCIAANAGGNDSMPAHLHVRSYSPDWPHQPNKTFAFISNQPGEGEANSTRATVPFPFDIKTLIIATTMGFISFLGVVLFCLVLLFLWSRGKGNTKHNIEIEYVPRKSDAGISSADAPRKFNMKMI

[3] = target: T4, mouse Sp35 in cell lysate (immunoprecipitation, Western) (mouse, UniProt Q9D1T0 36-614, limits assumed); assay: IP
T4 construct: also called mSp35; mLINGO-1
T4 sequence (looked up): T3 sequence (looked up)

[4] = target: T4, mouse Sp35 in cell lysate …; assay: IP; remark: listed apart in the source
Experimental: (§1) To perform the immunoprecipitation, COS-1 cells expressing Sp35, fused to a hemaglutinin (HA) tag on the N-terminus, were produced by transiently transfecting COS-1 cells with a DNA construct which expresses the full-length Sp35 protein with an HA tag. Cells were harvested 48 hr after transfection and were lysed in 1 ml lysis buffer (50 mM HEPES, pH 7.5, 150 mM NaCl, 1.5 mM MgCl₂, 1 mM EGTA, 1% Triton X-100 and 10% glycerol) for 30 min at 4° C. After centrifugation at 14,000×g for 15 min, the supernatants were incubated with ProteinA/G-Sepharose beads (Santa Cruz) at 4° C. for 1 hr, and then incubated at 4° C. for 1 hr with either the 1A7 or the 2F3 anti-Sp35 murine monoclonal antibodies. The beads were washed 3 times with lysis buffer, boiled in Laemmli sample buffer, subjected to 4-20% SD S-PAGE, and analyzed by Western blotting using an antibody which recognizes the HA tag. As shown on the SDS-PAGE gel, monoclonal antibodies 1A7 and 2F3, immunoprecipitated human and murine Sp35 (FIG. 1). […] Similarly, monoclonal antibodies 1G7, 2B10, 2F3, 3P4C2.2D2, 3P4C8.2G9, Li01, Li03, Li05, Li06, Li07, Li08, Li11, Li12, 7P1D5.1G9 and 3B5.2 immunoprecipitate human or mouse or human and mouse Sp35 (See Table 3B and 3C). Additionally, Li08 immunoprecipitates AP-Sp35 and monoclonal antibodies 1B6.4 and 3E3.1 immunoprecipitate endogenous Sp35 (See Table 3B).

[5] = target: mouse Sp35 protein expressed on transfected cells (mouse) (UniProt Q9D1T0); assay: FACS, stable CHO
[6] = target: T1, human Sp35 protein expressed on …; assay: IHC, transfected cells
[7] = target: T5, Sp35-Fc fusion protein (human Sp35 residues 1-532 fused to hinge and Fc of human IgG1) (human, UniProt Q96FE5 40-538); assay: ELISA
T5 construct: ran as a dimer under non-reducing conditions; also called LINGO-1-Ig; not shown: hinge and Fc region of human IgG1
T5 sequence: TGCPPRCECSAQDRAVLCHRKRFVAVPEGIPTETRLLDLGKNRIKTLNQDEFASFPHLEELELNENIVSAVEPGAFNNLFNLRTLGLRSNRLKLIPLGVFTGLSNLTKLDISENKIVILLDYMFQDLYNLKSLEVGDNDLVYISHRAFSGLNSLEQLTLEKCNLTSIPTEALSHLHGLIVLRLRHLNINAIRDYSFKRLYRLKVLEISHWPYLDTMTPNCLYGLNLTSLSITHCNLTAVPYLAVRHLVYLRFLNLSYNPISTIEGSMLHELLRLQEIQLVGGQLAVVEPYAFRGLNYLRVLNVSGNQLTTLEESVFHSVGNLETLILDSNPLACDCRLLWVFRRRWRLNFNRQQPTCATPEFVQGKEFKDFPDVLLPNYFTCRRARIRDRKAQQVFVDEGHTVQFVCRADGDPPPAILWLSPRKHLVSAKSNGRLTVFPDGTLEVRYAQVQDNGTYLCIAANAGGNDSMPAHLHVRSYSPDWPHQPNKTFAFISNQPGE
Experimental: In order to determine which regions of the Sp35 polypeptide were bound by the various hybridoma- and phage display-derived monoclonal antibodies produced in Example 2, an ELISA assay was performed using a panel of truncated Sp35 polypeptides, each fused to the hinge and Fc regions of IgG1 by the methods described in Example 1. […] Ovalbumin and BSA were used as controls. […] The affinity of these latter antibodies for mouse and rat Sp35 was restored to the level seen using human Sp35 when amino acid 419 of the mouse or rat Sp35 is changed from histidine (H) to arginine (R). Arginine is the amino acid at position 419 in human Sp35. […] AP substrate was then developed by 10 mg/ml 4NPP in 0.1 M Glycine, 1 mM MgCl₂, 1 mM ZnCl₂, pH 10.5, and read at O.D. 405.

[8] = target: T6, human Sp35, full-length, in cell lysate (immunoprecipitation, Western) (human, UniProt Q96FE5 40-620); assay: IP
T6 construct: also called huSp35; hLINGO-1
T6 sequence: T1 sequence
Experimental: as §1

B1: 1A7 Fab (Fab, V domains shown)
VH: QVQLVQSGPELKKPGETVKISCKASGYTFTNYGMNWVKQAPGKGLKWMGWINTDTGEPTYTEDFQGRFAFSLETSASTVYLQFNNLKNEDTATYFCAREGVHFDYWGQGTTVTVSS
VL: QIVLTQSPAIMSASPGEKVTMTCSASSSVSYMHWYQQKSGTSPKRWIYDTSKLASGVPARFSGSGSGTSYSLTISSMEAEDAATYYCQQWSSNPFTFGSGTKLEIK
notes: Fab of murine IgG1/kappa 1A7
For B1, the “FACS on stable CHO” value [1] was ~1 nM.

B2: 3B5.2 monoclonal antibody (ATCC PTA-8106) (antibody, mouse IgG1, V domains shown)
VH: QVQLQQPGAELVRPGTSVKLSCRASGYTFTSYWMHWVKQRPGQGLEWIGVIDPSDSYTNYNQKFRGKATLTVDTSSSTAYMQLSSLTSEDSAVYYCARPYYGSHWFFDVWGTGTTVTVSS
VL: B1 VL with S28R, M32V, I47L, K52N, S62G, S64N, S92T, F95P, S99G
notes: murine IgG1/kappa; VL is named for 3B5.2; also called 3B5.5
In the case of B2, the binding result (Ig region of Sp35) is reported as “no binding”, the “FACS on stable CHO” value [1] is reported as < 0.4 nM and the “FACS on stable CHO” value [2] is reported as 0.4 nM.

B3: 80-D02 (Dli34) Fab (Fab, V domains shown)
VH: EVQLLESGGGLVQPGGSLRLSCAASGFTFSNYEMYWVRQAPGKGLEWVSGIYSSGGITVYADSVKGRFTISRDNSKNTLYLQMNSLRAEDTAVYYCARAAILDWYFDLWGRGTLVTVSS
VL: DIQMTQSPSSLSASVGDRVTITCHASQDISNYLSWYQQKPGKAPKLLIYDAFNLETGVPSRFSGSGSGTDFTFTISSLQPEDFATYYCQHYDNLPFTFGPGTRVAIR
notes: human
B3: binds [3].

B4: 30-B01 (Li11) Fab (Fab, V domains shown)
VH: EVQLLESGGGLVQPGGSLRLSCAASGFTFSSYAMYWVRQAPGKGLEWVSSISTSGGYTGYADSVKGRFTISRDNSKNTLYLQMNSLRAEDTAVYYCARDTSDNDYYYMDVWGKGTTVTVSS
VL: DIQMTQSPSSVSAPIGDRVTITCRASQEIANYLAWYQQKPGKAPKLLIYDTYTLQTDVPPRFSGSGSGTDFTLTISSLQPEDTATYFCQQADIFPLSFGGGTKVEIK
notes: human, kappa; also called Li011; Dli11
B4: binds [4].

B5: 80-A08 (Dli33) Fab (Fab, V domains shown)
VH: EVQLLESGGGLVQPGGSLRLSCAASGFTFSIYPMFWVRQAPGKGLEWVSWIGPSGGITKYADSVKGRFTISRDNSKNTLYLQMNSLRAEDTATYYCAREGHNDWYFDLWGRGTLVTVSS
VL: DIQMTQSPGTLSLSPGERATLSCRASQSVSSYLAWYQQKPGQAPRLLIYDASNRATGIPARFSGSGSGTEFTLTISSLQSEDFAVYYCQQYDKWPLTFGGGTKVEIK
notes: human
B5: binds [3].

B6: D05 (full-length antibody with Li05 variable region) (antibody, V domains shown)
VH: EVQLLESGGGLVQPGGSLRLSCAASGFTFSAYAMGWVRQAPGKGLEWVSSIVSSGGYTDYADSVKGRFTISRDNSKNTLYLQMNSLRAEDTAVYYCAREGDHNAFDIWGQGTMVTVSS
VL: QSVLTQPPSVSVAPGQTARISCGGDNIGSKSVHWYQQRPGQAPVLVVYDDYDRPSGIPERFSGSNSGDTAILTITRVEVGDEADFYCQVRDSRTEERVFGGGTKVTVL
Work on B6 yielded an FACS on stable CHO [5] of 5.5 nM.

B7: 2F3 monoclonal antibody (antibody, mouse IgG2a, V domains shown)
VH: EVKLEESGGGLVQPGGSMKLSCAASGFTFSDAWLDWVRQSPEKGLEWVAEIRSKANNHATNYAESVKGRFTISRDDSKSSVYLQMNSLRAEDTGIYFCTPSFAYWGQGTTVTVSS
VL: DIQMTQSPASLSASVGETVTITCRASGNIYNYLAWFQQKQGKSPQLLVYNAKTLPDGVPSRFSGSGSGTQYFLKINSLQPEDFGSYYCQHFWAIPYTFGGGTKLEIK
notes: murine IgG2a
B7: binds [6]; binds [7]; binds [8].

B8: 30-C12 (Li01) Fab (Fab, V domains shown)
VH: EVQLLESGGGLVQPGGSLRLSCAASGFTFSKYQMTWVRQAPGKGLEWVSSIYPSGGNTVYADSVKGRFTISRDNSKNTLYLQMNSLRAEDTAVYYCASGTTEAVFDYWGQGTLVTVSS
VL: DIQMTQSPSSLSASVGDRVTITCQASQDISNYLNWYQQKPGKAPKLLIYDASNLETGVPSRFSGSGSGTDFTLTISSLQPEDFATYYCQQADRFPAVTFGGGTKVEIK
notes: human, kappa; also called Dli01
B8: binds [8]; binds [4].
